Test results taken from PMC4788496 (Chemistry & biology, 2015).

Biological target: the molecule itself
Assay: SEC

B1: apoNC1 (heme-free DGCR8 construct NC1, a.a. 276-751) (domain or fragment, human, UniProt Q8WYQ5 276-751, looked up)
chain: DGETSVQPMMTKIKTVLKSRGRPPTEPLPDGWIMTFHNSGVPVYLHRESRVVTWSRPYFLGTGSIRKHDPPLSSIPCLHYKKMKDNEEREQSSDLTPSGDVSPVKPLSRSAELEFPLDEPDSMGADPGPPDEKDPLGAEAAPGALGQVKAKVEVCKDESVDLEEFRSYLEKRFDFEQVTVKKFRTWAERRQFNREMKRKQAESERPILPANQKLITLSVQDAPTKKEFVINPNGKSEVCILHEYMQRVLKVRPVYNFFECENPSEPFGASVTIDGVTYGSGTASSKKLAKNKAARATLEILIPDFVKQTSEEKPKDSEELEYFNHISIEDSRVYELTSKAGLLSPYQILHECLKRNHGMGDTSIKFEVVPGKNQKSEYVMACGKHTVRGWCKNKRVGKQLASQKILQLLHPHVKNWGSLLRMYGRESSKMVKQETSDKSVIELQQYAKKNKPNLHILSKLQEEMKRLAEEREETRK
- binding result: binds
